Tests used:
[1] = biological target: Abeta 1-40 monomer (UniProt P05067); assay: MPA bead capture, Abeta 1-40 read-out of the CSF sample (noise)
[2] = biological target: Abeta 1-42 globulomer (UniProt P05067); assay: 42 (globulomer) RLU over 40 (Abeta 1-40 monomer) RLU
[3] = biological target: Abeta 1-42 globulomer (UniProt P05067); assay: MPA bead capture, CSF + 1 ng/mL globulomer, Abeta immunoassay
[4] = biological target: Abeta (1-42) aggregates from Alzheimer's Disease Brain Homogenate (human) (UniProt P05067); assay: MPA, AD brain homogenate in CSF, Abeta(1-42) ELISA
[5] = biological target: Abeta (1-42) aggregates from Alzheimer's Disease Brain Homogenate (human) (UniProt P05067); assay: MPA, AD brain homogenate in plasma, Abeta(1-42) ELISA

Row | average RLU (40) [1] | 42:40 ratio [2] | average RLU (42) [3] | Substance | limit of detection [4] | limit of detection [5]
1 | 198 RLU | – | – | link-FKFKKK (peptide) | – | –
2 | 279 RLU | – | – | link-KKKFKF (peptide) | – | –
3 | 254 RLU | 6.3 | 1600 RLU | link-kkkfkf (peptide) | – | –
4 | – | – | – | peptoid +++++++ | 1.6 mL/assay | 2.5 mL/assay
